Test results published in paper PMC11417369, “DNA sequence and chromatin differentiate sequence-specific transcription factor binding in the human malaria parasite Plasmodium falciparum”.
Residue numbers refer to the chain shown, from its start.

B1: GTGCAC_negctrl_site418 (dsDNA)
DNA 1: TATTGACAAAAAAAAAAAAGGTAAAAAAGAAAGAAA
DNA 2: TTTCTTTCTTTTTTACCTTTTTTTTTTTTGTCAATA
B2: GTGCAC_negctrl_site534 (dsDNA)
DNA 1: TTTTTTATCTAATATTTTATAATTTTCATAAATTTG
DNA 2: CAAATTTATGAAAATTATAAAATATTAGATAAAAAA
B3: GTGCAC_negctrl_site172 (dsDNA)
DNA 1: TATTTTTTAAGTGAACATTTGTTATTATATTCTTAT
DNA 2: ATAAGAATATAATAACAAATGTTCACTTAAAAAATA
B4: GTGCAC_negctrl_site125 (dsDNA)
DNA 1: AAAAATTATAAAAAACAAATATTAAATAATTATTAA
DNA 2: TTAATAATTATTTAATATTTGTTTTTTATAATTTTT
B5: GTGCAC_negctrl_site492 (dsDNA)
DNA 1: AAAACCTAAAAGTCTTAAATTTTAAATATACCTACA
DNA 2: TGTAGGTATATTTAAAATTTAAGACTTTTAGGTTTT
B6: GTGCAC_negctrl_site30 (dsDNA)
DNA 1: TCTTAAAAGGGGAATGGAATGGAGAAAATGAAATAA
DNA 2: TTATTTCATTTTCTCCATTCCATTCCCCTTTTAAGA
B7: GTGCAC_negctrl_site22 (dsDNA)
DNA 1: AATATATTGTTTCCTGATATTAAATTCAATTTAATG
DNA 2: CATTAAATTGAATTTAATATCAGGAAACAATATATT
B8: GTGCAC_negctrl_site409 (dsDNA)
DNA 1: ATTGAGGCTGGTTATATAATAATTTTATTATTTTAG
DNA 2: CTAAAATAATAAAATTATTATATAACCAGCCTCAAT
B9: GTGCAC_negctrl_site372 (dsDNA)
DNA 1: AAAAAAATCACATAAAATACTTTATTTTATATTATA
DNA 2: TATAATATAAAATAAAGTATTTTATGTGATTTTTTT
B10: GTGCAC_negctrl_site394 (dsDNA)
DNA 1: AAAAAAAATTAAATAAATAAATATACACATATATAT
DNA 2: ATATATATGTGTATATTTATTTATTTAATTTTTTTT
B11: GTGCAC_negctrl_site442 (dsDNA)
DNA 1: ATAGTACAACAGGTTCTTGACAAACAATATGAATGT
DNA 2: ACATTCATATTGTTTGTCAAGAACCTGTTGTACTAT
B12: GTGCAC_negctrl_site432 (dsDNA)
DNA 1: AAAAAAATAATATAAATAATGAAAAGATATAAATAA
DNA 2: TTATTTATATCTTTTCATTATTTATATTATTTTTTT
B13: GTGCAC_negctrl_site68 (dsDNA)
DNA 1: GCAAAATAACAATGTTACACTTATAAAATTGAGGCA
DNA 2: TGCCTCAATTTTATAAGTGTAACATTGTTATTTTGC
B14: GTGCAC_negctrl_site76 (dsDNA)
DNA 1: B7 DNA 1 with T8G, G9C, C14G, G16T
DNA 2: B7 DNA 2 with C21A, G23C, C28G, A29C
B15: GTGCAC_negctrl_site469 (dsDNA)
DNA 1: AACAAAGGATTTATATATACATACATACATACATAA
DNA 2: TTATGTATGTATGTATGTATATATAAATCCTTTGTT
B16: GTGCAC_negctrl_site247 (dsDNA)
DNA 1: TGTTTATAAATATAAAAAAATATATATATATATTAT
DNA 2: ATAATATATATATATATTTTTTTATATTTATAAACA
B17: GTGCAC_negctrl_site271 (dsDNA)
DNA 1: TTGTTAATAAATAAATAAATAAATATATTTATATAT
DNA 2: ATATATAAATATATTTATTTATTTATTTATTAACAA
B18: GTGCAC_negctrl_site497 (dsDNA)
DNA 1: TATATAATATATATTTTATATTTGTAATAATTTTTT
DNA 2: AAAAAATTATTACAAATATAAAATATATATTATATA
B19: GTGCAC_negctrl_site197 (dsDNA)
DNA 1: TTTTTAAAAAAGATAAGCGAAAGAATTAATTTTTAA
DNA 2: TTAAAAATTAATTCTTTCGCTTATCTTTTTTAAAAA
B20: GTGCAC_negctrl_site41 (dsDNA)
DNA 1: TCTTGATACAAACATTTAAATAAATAAATAAAAAAA
DNA 2: TTTTTTTATTTATTTATTTAAATGTTTGTATCAAGA
B21: GTGCAC_negctrl_site517 (dsDNA)
DNA 1: TTTTGAAGTAACAAATAAATAAATAAATATATAAAA
DNA 2: TTTTATATATTTATTTATTTATTTGTTACTTCAAAA
B22: GTGCAC_negctrl_site606 (dsDNA)
DNA 1: TTTAATTTTACATGAGAAACATATTACAATAAAATA
DNA 2: TATTTTATTGTAATATGTTTCTCATGTAAAATTAAA
B23: GTGCAC_negctrl_site454 (dsDNA)
DNA 1: AAAAAAAAAGTATATATATATTTAAGGAATTCTCTC
DNA 2: GAGAGAATTCCTTAAATATATATATACTTTTTTTTT
B24: GTGCAC_negctrl_site374 (dsDNA)
DNA 1: TTTCCGGTAATATGGAGATATATGTGGGTTTTTTTT
DNA 2: AAAAAAAACCCACATATATCTCCATATTACCGGAAA
B25: GTGCAC_negctrl_site216 (dsDNA)
DNA 1: GGTAGATTATTATTAACGAAAAATGTTTTTAACATA
DNA 2: TATGTTAAAAACATTTTTCGTTAATAATAATCTACC
B26: GTGCAC_negctrl_site127 (dsDNA)
DNA 1: ATATATACATATACTATATCTTTTATTTTTATTATT
DNA 2: AATAATAAAAATAAAAGATATAGTATATGTATATAT
B27: GTGCAC_negctrl_site334 (dsDNA)
DNA 1: TTTTTAATTAACTTTTTATAAATAAATAAAAATATA
DNA 2: TATATTTTTATTTATTTATAAAAAGTTAATTAAAAA
B28: GTGCAC_negctrl_site174 (dsDNA)
DNA 1: AAGAAAAAAAAAAAAAAAAAAAAAAAAAAGGAAAAA
DNA 2: TTTTTCCTTTTTTTTTTTTTTTTTTTTTTTTTTCTT
B29: GTGCAC_negctrl_site277 (dsDNA)
DNA 1: TTTTTTAAATATTATTTTTATGAGTAAATATATTAT
DNA 2: ATAATATATTTACTCATAAAAATAATATTTAAAAAA
B30: GTGCAC_negctrl_site327 (dsDNA)
DNA 1: GCACACATATAATTAAACATATATTTGTATTATTTT
DNA 2: AAAATAATACAAATATATGTTTAATTATATGTGTGC
B31: GTGCAC_negctrl_site721 (dsDNA)
DNA 1: GTTTTAAAATTAAATATTATGGCATAATTCAAGAAA
DNA 2: TTTCTTGAATTATGCCATAATATTTAATTTTAAAAC
B32: GTGCAC_negctrl_site567 (dsDNA)
DNA 1: AATATAAACATAGATAGATAAATAAATAAATAAACA
DNA 2: TGTTTATTTATTTATTTATCTATCTATGTTTATATT

Molecular target: AP2-I D3 (Plasmodium falciparum, UniProt Q8IJW6 910-1027)
Test: gcPBM; about 25 ug protein; PBS, 1% milk, 0.2 mg/ml BSA, salmon testes DNA, 0.03% Triton X-100
Settings: tags: N-terminal GST (pGEX-4T-1), kept; label: surface-attached array probe

Binder	binding signal
B1	7.05 ln median PBM intensity, better of two orientations
B2	7.06 ln median PBM intensity, better of two orientations
B3	7.06 ln median PBM intensity, better of two orientations
B4	7.08 ln median PBM intensity, better of two orientations
B5	7.08 ln median PBM intensity, better of two orientations
B6	7.11 ln median PBM intensity, better of two orientations
B7	7.11 ln median PBM intensity, better of two orientations
B8	7.11 ln median PBM intensity, better of two orientations
B9	7.11 ln median PBM intensity, better of two orientations
B10	7.11 ln median PBM intensity, better of two orientations
B11	7.13 ln median PBM intensity, better of two orientations
B12	7.13 ln median PBM intensity, better of two orientations
B13	7.14 ln median PBM intensity, better of two orientations
B14	7.14 ln median PBM intensity, better of two orientations
B15	7.14 ln median PBM intensity, better of two orientations
B16	7.14 ln median PBM intensity, better of two orientations

Binder	binding signal
B17	7.14 ln median PBM intensity, better of two orientations
B18	7.15 ln median PBM intensity, better of two orientations
B19	7.16 ln median PBM intensity, better of two orientations
B20	7.16 ln median PBM intensity, better of two orientations
B21	7.16 ln median PBM intensity, better of two orientations
B22	7.18 ln median PBM intensity, better of two orientations
B23	7.18 ln median PBM intensity, better of two orientations
B24	7.18 ln median PBM intensity, better of two orientations
B25	7.18 ln median PBM intensity, better of two orientations
B26	7.2 ln median PBM intensity, better of two orientations
B27	7.2 ln median PBM intensity, better of two orientations
B28	7.21 ln median PBM intensity, better of two orientations
B29	7.22 ln median PBM intensity, better of two orientations
B30	7.22 ln median PBM intensity, better of two orientations
B31	7.22 ln median PBM intensity, better of two orientations
B32	7.22 ln median PBM intensity, better of two orientations
